Experimental data published in the RNAGym collection of RNA variant scans (doi:10.7554/elife.80360).

B1: HDV Ribozyme (parent)
chain: GGCCGGCAUGGUCCCAGCCUCCUCGCUGGCGCCGGCUGGGCAACAUUCCGAGGGGACCGUCCCCUCGGUAAUGGCGAAUGGGACCCA

Variants of: B1
Assay: self-cleavage, relative activity (ratio to wild type); higher = more cleavage; co-transcriptional

| Variant | self-cleavage |
| --- | --- |
| G67A C86A | 0.985 |
| G67A C86G | 0.895 |
| G67A C86U | 0.845 |
| C66G G80U | 0.116 |
| C66G G80C | 0.0959 |
| U65A A78U | 0.396 |
| C64U C66G | 0.748 |
| C64G G73A | 0.594 |
| C66A A78U | 0.198 |
| C66A A78G | 0.538 |
| U65C G68A | 0.959 |
| G67A A87G | 0.936 |
| C64U G76C | 0.905 |
| C64U G76U | 1.15 |
| C64U G76A | 1.01 |
| C66A G67C | 0.845 |
| C66A G67U | 0.878 |
| U65A G80U | 0.279 |
| U65A G80C | 0.123 |
| U65C C86A | 0.673 |
| C66A U69A | 1.16 |
| C66A U69G | 0.755 |
| C66A U69C | 1.1 |
| U65G G67A | 0.812 |

| Variant | self-cleavage |
| --- | --- |
| C66G G82A | 0.369 |
| U65A G67U | 0.767 |
| U65A G67C | 0.705 |
| C64G G81A | 0.222 |
| C64G G81U | 0.312 |
| C66A A71C | 0.866 |
| C66A A71G | 0.782 |
| U65A | 0.966 |
| U65C | 1.02 |
| U65G | 0.988 |
| U65C C75G | 0.482 |
| U65C C75U | 0.185 |
| U65C C75A | 0.0489 |
| U65A G68C | 0 |
| G67A C85U | 1.03 |
| G67A C85G | 1.1 |
| G67A C85A | 0.844 |
| G67C A78C | 0.0639 |
| G67C A78G | 0.492 |
| G67A G74U | 0.534 |
| U65G C86G | 0.752 |
| U65G C86A | 0.988 |
| C64G U69A | 1.01 |
| U65G C85A | 1.11 |

| Variant | self-cleavage |
| --- | --- |
| G67A A71U | 0.725 |
| C64U G73U | 0.345 |
| C64U G73C | 0.601 |
| C66G A77U | 0.597 |
| C66U G80A | 0.475 |
| C66U G80C | 0.153 |
| C64G A78U | 0.18 |
| G67A G82U | 0.348 |
| G67A G82A | 0.285 |
| C64G G80A | 0.641 |
| C64G G80C | 0.305 |
| C64G G80U | 0.443 |
| U65C G81A | 0.358 |
| U65C G81U | 0.415 |
| U65A C85G | 0.604 |
| C64G C85G | 0.872 |
| C66A C84A | 0.831 |
| C66A C84U | 0.696 |
| U65C A77C | 0.465 |
| U65C A77G | 0.831 |
| U65G C66U | 0.702 |
| C64U G67U | 0.804 |
| C64U G67A | 0.92 |
| G67C A77U | 0.707 |

| Variant | self-cleavage |
| --- | --- |
| C66U G81A | 0.509 |
| C66U G81U | 0.382 |
| C66A U79G | 0.804 |
| U65A C66U | 0.812 |
| U65A C66G | 0.932 |
| C66G U79A | 0.808 |
| G67A C75U | 0.189 |
| G67A C75A | 0.185 |
| C66U A87U | 1.23 |
| U65C G67U | 0.627 |
| U65C G67C | 0.984 |
| U65C G67A | 0.706 |
| G67C G80C | 0.189 |
| G67C G80U | 0.223 |
| G67C G80A | 0.464 |
| U65C C84A | 0.773 |
| U65C C84G | 0.646 |
| U65C C84U | 0.703 |
| U65C C66G | 1.11 |
| U65C C66A | 1.18 |
| C66A C86A | 0.769 |
| C66A C86U | 0.9 |
| G67A A83G | 0.39 |
| G67C A70C | 0.655 |

| Variant | self-cleavage |
| --- | --- |
| G67C A70U | 0.851 |
| U65C G74U | 0.523 |
| C66A G68A | 0.805 |
| C66A G68C | 0.453 |
| C66A A70U | 1.08 |
| C66A A70G | 0.745 |
| C66A A70C | 0.831 |
| C66U A78U | 0.309 |
| U65A A87C | 1.04 |
| U65A A87G | 0.877 |
| C66A A87G | 0.898 |
| G67C G68C | 0.566 |
| G67C G68U | 0.847 |
| G67C G68A | 0.955 |
| C66A C75U | 0.292 |
| C66A C75G | 0.181 |
| C64G C75A | 0.201 |
| U65C A78U | 0.312 |
| C64U U72G | 0.712 |
| C64U U72C | 0.612 |
| C66A G76C | 0.976 |
| C66A G76U | 0.981 |
| C66U C75U | 0.173 |
| C66U C75G | 0.141 |

| Variant | self-cleavage |
| --- | --- |
| C66U C75A | 0.176 |
| U65C A83G | 0.862 |
| U65C A83U | 0.369 |
| C66U G82C | 0.268 |
| C66U G82A | 0.649 |
| U65G A83G | 0.698 |
| U65G A83C | 0.703 |
| G67A A77C | 0.325 |
| C66G U69G | 1.18 |
| C66G U69A | 0.917 |
| C64U G68C | 0.305 |
| C64U G68A | 0.821 |
| G67A U79A | 0.982 |
| G67A U79C | 0.509 |
| U65A C84A | 0.769 |
| U65A C84G | 0.494 |
| C66A U72G | 0.332 |
| C66A U72A | 0.608 |
| C64U A78G | 0.813 |
| C64U A78C | 0.138 |
| U65G U72C | 0.415 |
| U65G U72A | 0.739 |
| G67C A71C | 0.657 |
| G67A U69G | 0.776 |

| Variant | self-cleavage |
| --- | --- |
| G67A U69C | 0.927 |
| G67A U69A | 1 |
| C64U A87G | 1.04 |
| U65G C75U | 0.212 |
| C64G G82A | 0.535 |
| C66U A77G | 0.489 |
| U65A U69G | 0.806 |
| U65A U69C | 0.782 |
| U65A U69A | 0.929 |
| C66G U72G | 0.266 |
| C66G U72A | 0.587 |
| C66G U72C | 0.453 |
| U65C U72G | 0.831 |
| C64G U65G | 0.943 |
| C64G U65C | 0.199 |
| C64U C84A | 0.801 |
| C64U C84G | 0.869 |
| C64U C84U | 0.785 |
| U65A C75U | 0.277 |
| U65A C75G | 0.19 |
| C66U A83U | 0.43 |
| C66A A77U | 0.776 |
| C66A A77G | 0.706 |
